Measurements from patent US7977317B2, “Compositions and methods for modulating blood-brain barrier transport” (Raptor Pharmaceutical Inc., priority 2001, dated 2011).

Tests used:
Megalin = Megalin (Homo sapiens, UniProt P98164); settings: Tables 1-3; cited from earlier work
LRP = LRP (Homo sapiens, UniProt Q07954); settings: Tables 1-3; cited from earlier work
human brain capillaries = assay: Accumulation/uptake of [125I]-p97 in isolated human brain capillaries; format: binding
Method: FIG. 5. Accumulation of p97 in human brain capillaries. Accumulation of [^125I]-p97 was measured at 37° C. for 1 h in isolated human brain capillaries (100 μg/assay). The incubation medium contained [^125I]-p97 and a final concentration of 100 nM p97 in Ringer/Hepes solution. The accumulation of [^125I]-p97 was performed in the presence or absence of 5 μm cold-p97, holo-transferrin or lactoferrin. […] The suspension was filtered under vacuum through a […] pore size Millipore filter. The filter was rinsed with 8 ml of stop solution, and the radioactivity was counted. Nonspecific binding of the radioactivity to the capillaries was determined by the addition of the ice-cold stop solution to the capillaries before adding the incubation medium. This value was subtracted from accumulation values obtained following an 1 h incubation. The results were expressed as ng of [^125I]-p97 accumulated per μg of brain capillaries.
FIG. 16 illustrates the identification of a p97 receptor according to ligand specificity. FIG. 16a, Uptake of [^125I]-p97 into human brain capillaries. The uptake of [^125I]-p97 at 100 nM (control) into isolated human brain capillaries was measured for 1 h at 37° C. in the presence of a 50-fold molar excess of unlabelled p97, human holo-transferrin or human lactoferrin. (*[…] Student's t-test (n=5); FIG. 16b, Effect of RAP on [^125I]-p97 transcytosis across BBCEC monolayers. Apical-to-basal transport of [^125I]-p97 was measured in the presence (closed circles) or absence (open circles) of RAP (25 μg/ml) (n=5); FIG. 16c, Inhibition of bovine [^125I]-lactoferrin transport by p97. Transcytosis of bovine [^125I]-lactoferrin (50 nM) was measured in the presence (closed circles) or absence (open circles) of unlabelled p97 (5 μM) at 37° C. (n=3).
A. Isolation of human brain capillaries. Capillaries of the blood-brain barrier were isolated from human brain cortex by a procedure previously described by Dallaire, et al., J. Biol. Chem., 267:22323-22327 (1992) with slight modifications. Human brains were obtained post-mortem. The brain was cleared of meninges, superficial large blood vessels and choroid plexus. All the following procedures were performed at 4° C. The cerebral cortex was homogenized in 5 volumes of Ringer/Hepes solution with a Polytron (Brinkman Instruments, Rexdale, Ontario, Canada). The homogenate was mixed with an equal volume of Dextran T-70 (27 g in 100 ml of Ringer/Hepes). The suspension was centrifuged at 25,000 g for 10 min. The pellet was resuspended in 30 ml of Ringer/Hepes and passed through a 250 μm nylon mesh screen. […]
B. p97 accumulation in human brain capillaries. […] Accumulation of [^125I]-p97 was measured at 37° C. for 1 h in isolated human brain capillaries (100 μg/assay). […]

BBCEC monolayers = assay: Transcytosis across BBCEC monolayers (in vitro BBB model); format: cell-based, bovine
Excerpt: FIG. 10 assesses the ability of several agents to interfere with p97 transyctosis. FIG. 10a, transcytosis of I125-P97 was compared in the presence of cold p97 (5 micromolar), Lf (5 micromolar), and Tf (5 micromolar). […] FIG. 10c, RAP, a known poly-peptide inhibitor of the LDL-Receptor family was applied to the cells (25 micrograms/ml).
FIG. 11 examines the accumulation and transcytosis of p97. FIG. 11a, of [^125I]-p97, [^125I]-BSA and [^125I]-holo-transferrin one hour after i.v. injection. The radioactivity in brain was compared between the three compounds. (n=3); FIG. 11b, Accumulation of p97 and transferrin into the mouse brain parenchyma. In situ brain perfusion was performed with human [^125I]-p97 or [^125I]-holo-transferrin at a final concentration of 10 nM via a catheter inserted in the right common carotid artery. The volume of distribution (VD) of [^125I]-proteins were obtained in the whole brain homogenate (white bars), in brain capillaries (solid bars) and in brain parenchyma (hatched bars) after isolation of the right hemisphere and capillary depletion. Results were obtained for p97 (n=10) and for holo-transferrin (n=6); FIG. 11c, Transcytosis of p97 across BBCEC monolayers. Transcytosis experiments were performed 37° C. (open circles) and 4° C. (closed circles) with BBCEC monolayers. [^125I]-p97 (1 mg/ml) was added to the upper side of the cell-covered filter. One representative experiment is shown (n=4); FIG. 11d, Preferential transport of p97 across the BBCEC monolayers. Apical-to-basal and basal-to-apical transport of [^125I]-p97 (25 nM) was measured for 2 hrs at 37° C. At the end of the experiment, [^125I]-p97 was assessed in the lower or upper chambers of each well by TCA precipitation (n=4).
FIG. 13 illustrates the transcytosis and accumulation of p97 and transferrin in BBCEC monolayers. FIG. 13a, Transcytosis experiments were performed at 37° C. (solid bars) or 4° C. (white bars). [^125I]-p97 or bovine [^125I]-holo-transferrin (1 mg/ml) was added to the upper side of the cell-covered filter. At the end of the experiment, radiolabelled proteins were measured in the lower chamber of each well by TCA precipitation (n=4). Controls were also performed at 37° C. with denatured [^125I]-p97 or bovine [^125I]-holo-transferrin boiled for 30 min (grey bars) (n=2); FIG. 13b, Biospecific interaction analysis was performed with native or boiled p97 for the indicated times. MAb L235 (5 μg) was immobilized on a sensor chip (SM5) using standard procedures incorporating NHS, EDC and ethanolamine. Native and boiled p97 (5 to 30 min) diluted at 1 mg/ml in Ringer/Hepes was cooled and injected into the BIAcore. The surface plasmon resonance response obtained for native p97 and boiled p97 was plotted (in relative units (RU)) as a function of time; FIG. 13c, The accumulation of both proteins into BBEC cells were also measured. Briefly, after incubation at 37° C. (solid bars) or 4° C. (white bars) with either [^125I]-protein, cells were washed four times with cold PBS. Accumulation of both denatured proteins (grey bars) was also measured at 37° C. Filters were then removed, and the radioactivity associated with the cells was quantified (n=3).
FIG. 14 illustrates the stability of p97 and integrity of the BBCEC monolayers following p97 transcytosis. FIG. 14a, Transcytosis experiments were performed at 37° C. and 4° C. by adding p97 (1 mg/ml) to the upper compartment. At the end of the experiment, 50 μl from each lower chamber was used for SDS-polyacrylamide gel electrophoresis. After electrophoresis, the gels were stained with Coomassie Blue. A standard curve was also made with known amounts of recombinant p97 (0-2 μg); FIG. 14b. The gels were dried and scanned to quantify the amount of intact p97 that crossed the BBCEC monolayers at 37° C. and 4° C. (n=3); FIG. 14c, Effect of p97 on sucrose permeability of BBCE cell monolayers co-cultured with astrocytes. […]

VLDL-R = VLDL-R (Homo sapiens, UniProt P98155); settings: Tables 1-3; cited from earlier work
ER-2 = target: T1, ER-2 (Homo sapiens, UniProt Q14114); settings: Tables 1-3; cited from earlier work
T1 sequence (Q14114 33-963): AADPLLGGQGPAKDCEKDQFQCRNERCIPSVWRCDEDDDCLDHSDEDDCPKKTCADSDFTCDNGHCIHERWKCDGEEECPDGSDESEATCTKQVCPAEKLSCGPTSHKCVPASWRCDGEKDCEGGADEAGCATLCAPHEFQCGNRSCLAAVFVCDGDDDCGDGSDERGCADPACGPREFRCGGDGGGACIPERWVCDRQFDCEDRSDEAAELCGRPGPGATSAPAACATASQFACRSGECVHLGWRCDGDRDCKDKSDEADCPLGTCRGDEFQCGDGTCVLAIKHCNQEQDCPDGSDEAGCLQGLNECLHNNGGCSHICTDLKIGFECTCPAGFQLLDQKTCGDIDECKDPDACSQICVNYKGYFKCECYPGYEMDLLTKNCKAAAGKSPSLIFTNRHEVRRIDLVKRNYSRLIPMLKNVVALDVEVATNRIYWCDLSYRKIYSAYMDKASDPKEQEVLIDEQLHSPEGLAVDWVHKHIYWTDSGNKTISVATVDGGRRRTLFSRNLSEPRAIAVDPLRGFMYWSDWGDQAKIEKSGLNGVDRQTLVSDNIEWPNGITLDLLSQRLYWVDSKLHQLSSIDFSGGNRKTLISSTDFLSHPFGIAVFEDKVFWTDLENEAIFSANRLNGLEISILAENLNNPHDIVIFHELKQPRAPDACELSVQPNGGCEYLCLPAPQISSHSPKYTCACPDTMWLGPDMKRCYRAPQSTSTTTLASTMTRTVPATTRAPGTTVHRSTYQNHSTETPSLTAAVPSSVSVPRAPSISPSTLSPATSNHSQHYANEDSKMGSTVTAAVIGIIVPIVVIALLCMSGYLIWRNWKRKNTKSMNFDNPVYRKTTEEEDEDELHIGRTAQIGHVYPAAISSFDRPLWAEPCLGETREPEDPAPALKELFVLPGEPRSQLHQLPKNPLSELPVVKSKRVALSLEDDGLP

LR11 = LR11 (Homo sapiens, UniProt Q92673); settings: Tables 1-3; cited from earlier work
LDL-R = LDL-R (Homo sapiens, UniProt P01130); settings: Tables 1-3; cited from earlier work

Chain of Megalin (P98164 26-4655, species assumed): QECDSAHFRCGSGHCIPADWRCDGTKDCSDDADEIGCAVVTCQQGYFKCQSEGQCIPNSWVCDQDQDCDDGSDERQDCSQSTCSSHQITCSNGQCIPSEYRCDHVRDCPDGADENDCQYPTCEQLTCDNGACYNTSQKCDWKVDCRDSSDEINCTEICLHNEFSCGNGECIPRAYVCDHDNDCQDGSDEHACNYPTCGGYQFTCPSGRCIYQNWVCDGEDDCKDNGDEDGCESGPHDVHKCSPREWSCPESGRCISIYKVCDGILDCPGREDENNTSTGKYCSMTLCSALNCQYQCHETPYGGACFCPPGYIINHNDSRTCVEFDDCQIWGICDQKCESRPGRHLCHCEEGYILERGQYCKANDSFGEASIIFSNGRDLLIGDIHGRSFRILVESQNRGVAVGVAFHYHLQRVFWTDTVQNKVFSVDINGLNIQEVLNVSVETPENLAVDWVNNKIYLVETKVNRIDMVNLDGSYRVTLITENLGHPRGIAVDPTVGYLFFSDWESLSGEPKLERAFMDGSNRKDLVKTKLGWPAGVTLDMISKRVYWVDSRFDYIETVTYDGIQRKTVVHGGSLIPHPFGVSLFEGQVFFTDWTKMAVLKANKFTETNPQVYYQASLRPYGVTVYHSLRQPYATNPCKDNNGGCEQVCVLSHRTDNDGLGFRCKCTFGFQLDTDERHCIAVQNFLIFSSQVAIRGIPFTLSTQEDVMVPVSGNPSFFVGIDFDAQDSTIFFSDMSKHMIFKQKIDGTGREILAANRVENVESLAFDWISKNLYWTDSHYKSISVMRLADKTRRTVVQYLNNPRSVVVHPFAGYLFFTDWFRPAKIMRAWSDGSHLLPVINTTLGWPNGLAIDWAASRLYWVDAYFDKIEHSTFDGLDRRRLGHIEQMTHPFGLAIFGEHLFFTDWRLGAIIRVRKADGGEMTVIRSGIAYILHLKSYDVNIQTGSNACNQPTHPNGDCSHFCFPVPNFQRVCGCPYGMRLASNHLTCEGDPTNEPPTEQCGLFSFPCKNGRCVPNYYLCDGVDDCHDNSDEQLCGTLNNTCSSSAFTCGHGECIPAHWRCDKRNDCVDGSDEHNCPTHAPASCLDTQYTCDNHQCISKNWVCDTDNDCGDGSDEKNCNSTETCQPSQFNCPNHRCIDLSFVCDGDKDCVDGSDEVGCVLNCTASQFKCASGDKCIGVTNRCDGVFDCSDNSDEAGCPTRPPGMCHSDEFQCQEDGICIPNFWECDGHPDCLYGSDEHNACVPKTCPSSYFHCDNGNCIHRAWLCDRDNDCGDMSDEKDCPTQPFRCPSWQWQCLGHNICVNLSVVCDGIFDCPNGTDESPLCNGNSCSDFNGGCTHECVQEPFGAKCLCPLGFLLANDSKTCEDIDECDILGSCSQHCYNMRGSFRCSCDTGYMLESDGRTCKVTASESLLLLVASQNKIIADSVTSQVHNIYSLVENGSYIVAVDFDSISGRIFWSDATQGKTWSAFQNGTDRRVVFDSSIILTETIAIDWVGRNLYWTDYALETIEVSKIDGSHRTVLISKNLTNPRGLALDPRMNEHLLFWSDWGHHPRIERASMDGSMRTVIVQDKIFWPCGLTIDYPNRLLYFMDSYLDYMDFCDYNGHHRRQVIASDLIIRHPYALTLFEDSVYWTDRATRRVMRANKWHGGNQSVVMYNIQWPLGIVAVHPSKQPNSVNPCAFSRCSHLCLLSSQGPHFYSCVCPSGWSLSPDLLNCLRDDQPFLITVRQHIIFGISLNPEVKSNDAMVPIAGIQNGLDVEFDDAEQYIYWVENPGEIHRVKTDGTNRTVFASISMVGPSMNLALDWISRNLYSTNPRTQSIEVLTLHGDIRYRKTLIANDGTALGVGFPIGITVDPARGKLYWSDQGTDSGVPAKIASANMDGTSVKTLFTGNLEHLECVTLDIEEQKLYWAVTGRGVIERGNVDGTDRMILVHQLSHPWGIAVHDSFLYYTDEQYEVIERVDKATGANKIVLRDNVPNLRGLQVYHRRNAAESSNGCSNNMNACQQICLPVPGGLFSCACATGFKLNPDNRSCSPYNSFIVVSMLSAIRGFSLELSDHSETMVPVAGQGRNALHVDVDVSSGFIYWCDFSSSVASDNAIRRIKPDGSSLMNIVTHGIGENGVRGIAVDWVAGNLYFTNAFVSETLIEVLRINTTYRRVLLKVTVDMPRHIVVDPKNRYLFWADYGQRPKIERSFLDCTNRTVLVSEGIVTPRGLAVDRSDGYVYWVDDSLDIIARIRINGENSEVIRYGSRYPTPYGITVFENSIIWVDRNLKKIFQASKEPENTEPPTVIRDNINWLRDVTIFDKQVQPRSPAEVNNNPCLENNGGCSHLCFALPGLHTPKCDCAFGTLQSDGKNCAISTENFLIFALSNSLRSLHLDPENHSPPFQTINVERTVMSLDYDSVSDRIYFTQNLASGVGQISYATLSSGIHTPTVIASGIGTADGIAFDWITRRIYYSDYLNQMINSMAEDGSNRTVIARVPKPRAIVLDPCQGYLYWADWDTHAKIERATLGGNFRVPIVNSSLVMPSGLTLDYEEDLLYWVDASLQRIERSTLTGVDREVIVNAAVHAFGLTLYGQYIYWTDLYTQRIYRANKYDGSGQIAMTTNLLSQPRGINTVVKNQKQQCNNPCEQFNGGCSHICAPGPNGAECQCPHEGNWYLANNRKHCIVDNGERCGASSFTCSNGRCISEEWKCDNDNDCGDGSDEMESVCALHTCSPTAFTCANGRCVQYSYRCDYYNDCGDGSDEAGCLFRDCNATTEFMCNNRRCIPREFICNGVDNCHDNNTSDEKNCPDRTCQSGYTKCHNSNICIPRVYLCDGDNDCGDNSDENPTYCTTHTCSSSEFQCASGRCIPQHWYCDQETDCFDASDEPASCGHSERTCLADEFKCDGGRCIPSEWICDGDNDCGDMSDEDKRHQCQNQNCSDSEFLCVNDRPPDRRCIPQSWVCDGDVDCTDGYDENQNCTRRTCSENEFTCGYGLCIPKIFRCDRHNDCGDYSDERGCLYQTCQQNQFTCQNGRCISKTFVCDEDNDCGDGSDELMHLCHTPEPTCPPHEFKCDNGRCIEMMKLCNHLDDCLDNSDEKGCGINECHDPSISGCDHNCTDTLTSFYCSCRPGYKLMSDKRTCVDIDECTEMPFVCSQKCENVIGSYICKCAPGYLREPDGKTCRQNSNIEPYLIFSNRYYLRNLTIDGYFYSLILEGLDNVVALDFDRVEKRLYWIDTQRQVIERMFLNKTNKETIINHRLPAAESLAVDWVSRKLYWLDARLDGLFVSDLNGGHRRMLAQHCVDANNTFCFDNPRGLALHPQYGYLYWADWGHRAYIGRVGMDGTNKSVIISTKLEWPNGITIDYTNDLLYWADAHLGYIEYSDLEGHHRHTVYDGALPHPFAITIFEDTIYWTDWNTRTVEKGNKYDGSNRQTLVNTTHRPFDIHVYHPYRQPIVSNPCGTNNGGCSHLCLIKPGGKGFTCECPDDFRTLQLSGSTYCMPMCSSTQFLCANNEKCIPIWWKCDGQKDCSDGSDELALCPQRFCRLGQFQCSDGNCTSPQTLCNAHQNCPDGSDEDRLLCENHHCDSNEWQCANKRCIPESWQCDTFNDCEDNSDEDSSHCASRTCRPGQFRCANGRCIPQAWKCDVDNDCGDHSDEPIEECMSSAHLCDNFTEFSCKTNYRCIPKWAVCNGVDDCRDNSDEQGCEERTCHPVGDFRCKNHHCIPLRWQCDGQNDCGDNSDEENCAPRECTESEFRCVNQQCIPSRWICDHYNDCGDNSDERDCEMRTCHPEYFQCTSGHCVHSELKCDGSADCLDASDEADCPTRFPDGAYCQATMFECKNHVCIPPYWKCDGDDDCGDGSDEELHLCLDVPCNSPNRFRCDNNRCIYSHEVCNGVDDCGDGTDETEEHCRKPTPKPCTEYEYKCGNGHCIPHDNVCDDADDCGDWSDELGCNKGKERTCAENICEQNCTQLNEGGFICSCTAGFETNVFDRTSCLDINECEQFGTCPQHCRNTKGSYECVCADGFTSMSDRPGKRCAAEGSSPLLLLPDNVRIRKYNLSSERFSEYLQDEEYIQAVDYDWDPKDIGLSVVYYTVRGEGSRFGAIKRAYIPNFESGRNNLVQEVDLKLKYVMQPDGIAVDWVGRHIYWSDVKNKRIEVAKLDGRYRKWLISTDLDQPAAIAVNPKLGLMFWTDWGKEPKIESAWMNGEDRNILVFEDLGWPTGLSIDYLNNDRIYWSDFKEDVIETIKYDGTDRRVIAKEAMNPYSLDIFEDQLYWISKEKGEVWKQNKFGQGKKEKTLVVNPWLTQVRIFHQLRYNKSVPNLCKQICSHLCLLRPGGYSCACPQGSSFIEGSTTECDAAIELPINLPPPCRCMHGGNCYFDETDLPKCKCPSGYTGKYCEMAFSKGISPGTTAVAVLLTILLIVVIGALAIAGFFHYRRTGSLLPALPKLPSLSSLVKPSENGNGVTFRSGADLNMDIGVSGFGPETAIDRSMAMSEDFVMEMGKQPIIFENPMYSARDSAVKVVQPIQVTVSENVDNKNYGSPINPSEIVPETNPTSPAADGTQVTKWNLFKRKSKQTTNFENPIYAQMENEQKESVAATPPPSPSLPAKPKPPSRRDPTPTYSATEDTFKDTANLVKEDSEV

ApoJ/clusterin: ApoJ/clusterin
Binding to Megalin (Megalin): Yes

Gentamycin [reference compound]
Binding to LRP (LRP): Yes
Binding to Megalin (Megalin): Yes

β-amyloid peptide 1-40: β-amyloid peptide 1-40 [reference compound]
Competition with p97 for receptor binding in human brain capillaries, repeat experiment (human brain capillaries; performed identically to FIG. 5 (FIG. 6)): competes with p97 for receptor binding
Effect on transcytosis of 125I-p97 (BBCEC monolayers; competitor 5 micromolar (FIG. 10a, 10b)): failed to slow or reduce

Polymixin B [reference compound]
Binding to LRP (LRP): Yes
Binding to Megalin (Megalin): Yes

ApoE: Apolipoprotein E
Binding to LRP (LRP): Yes
Binding to Megalin (Megalin): Yes
Binding to VLDL-R (VLDL-R): Yes
Binding to ER-2 (ER-2): Yes
Binding to LR11 (LR11): Yes

tPA: tissue type plasminogen activator
Binding to LRP (LRP): Yes
Binding to Megalin (Megalin): Yes

Thrombospondin-1: thrombospondin-1
Binding to LRP (LRP): Yes
Binding to VLDL-R (VLDL-R): Yes

Plasminogen: plasminogen
Binding to Megalin (Megalin): Yes

α1-chymotrypsin/cathepsin G: protease/inhibitor complex
Binding to LRP (LRP): No
Binding to Megalin (Megalin): Yes

βAPP: β-amyloid precursor protein
Binding to LRP (LRP): Yes
Binding to VLDL-R (VLDL-R): Yes

human holo-transferrin: human holo-transferrin
Inhibition of the uptake of [125I]-p97 into isolated human brain capillaries (human brain capillaries; 50-fold molar excess, [125I]-p97 100 nM, 1 h at 37° C. (FIG. 16a)): had no effect
Reduction of apical-to-basal transport of [125I]-p97 (BBCEC monolayers; 200-fold molar excess of competitor, [125I]-p97 25 nM (FIG. 15a, 15b)): had no impact

Albumin
Binding to Megalin (Megalin): Yes

Pseudomonas Exotoxin A
Binding to LRP (LRP): Yes
Binding to Megalin (Megalin): No

Tissue factor inhibitor: tissue factor inhibitor
Binding to LRP (LRP): Yes

Activated α2-macroglobulin: activated α2-macroglobulin
Binding to LRP (LRP): Yes
Binding to Megalin (Megalin): No

Thyroglobulin: thyroglobulin
Binding to Megalin (Megalin): Yes
Binding to ER-2 (ER-2): Yes
Binding to LR11 (LR11): Yes

ApoB100: apolipoprotein B 100
Binding to LDL-R (LDL-R): Yes
Binding to Megalin (Megalin): Yes
